Source: patent US20110117113A1, “IMMUNOGLOBULIN SINGLE VARIABLE DOMAIN DIRECTED AGAINST HUMAN CXCR4 AND OTHER CELL ASSOCIATED PROTEINS AND METHODS TO GENERATE THEM” (priority 2009, published 2011)
Values belong to the molecule of their own block, whether it stands above or below them.

What was measured:
CXCR4 (N119A) [1] = target: T1, CXCR4 (N119A) (Homo sapiens, UniProt P61073, N119A); assay: Basal inositol phosphate accumulation in HEK293T cells transiently expressing CXCR4 (N119A); format: cell-based; settings: for functional profile on CXCR4 (N119A) (in words): ligand-induced alteration of basal inositol phosphate accumulation; for reduction of the constitutively increased basal signalling of CXCR4 (N119A): basal inositol phosphate accumulation, HEK293T cells transiently expressing CXCR4 (N119A)
T1 construct: expressed in transfected cells; host or cells: HEK293T, transient; membranes in A4, whole cells in A5
Source text: The functional profile of monovalent Nanobodies 238D2 and 238D4 as well as their bivalent fusion products L3 and L8 on CXCR4 (N119A) were investigated by measurement of the ligand-induced alteration of the basal inositol phosphate accumulation. HEK293T cells transiently expressing CXCR4 (N119A) show a 3-8 times higher basal rate of inositol phosphate accumulation compared to wild type CXCR4 or mock (which are virtually at the same level). […] The nanobody-induced reduction of basal inositol phosphate accumulation was antagonized by the selective neutral CXCR4 antagonist plerixafor confirming that the observed […] effects are mediated via CXCR4 (N119A).

CXCR4 (N119A) [2] = target: T1, CXCR4 (N119A); assay: Competition binding with [125I]-CXCL12 on constitutively active CXCR4 mutant N119A; settings: competition with [125I]-CXCL12 (40 pM); for binding to CXCR4 (N119A) (in words): highest nanobody test concentration 2 μM
Method: Competition binding assay—Periplasmic fractions were screened in a competition binding assay using membranes from HEK293T cells transiently expressing CXCR4. In short, periplasmic extracts (1:10) or ligands were pre-incubated with membranes in binding buffer (50 mM HEPES (pH 7.4), 1 mM CaCl2, 5 mM MgCl2, 100 mM NaCl, 0.5% bovine serum albumin) supplemented with 0.5% BSA for 1 h at 22° C. before the addition of [^125I]-CXCL12 (40 pM) or [^125I]-238D2 (3 nM) or [^125I]-238D4 (3 nM) for additional 2 h at 22° C. […] Membranes were then harvested over polyethylenimine (0.5%)-treated Whatman GF/C filter plates and washed three times with ice cold binding buffer containing 500 mM NaCl. Plates were counted by liquid scintillation.
CXCR4—specific Nanobodies behave as neutral antagonists or inverse agonists on constitutively active mutants of CXCR4—The CXCR4—specific monovalent Nanobodies 238D2 and 238D4 as well as their bivalent fusion products L3 and L8 were investigated on the constitutively active CXCR4 mutant N119A (equivalent to N3.35A in the Ballestros-Weinstein numbering of class A GPCRs). […] Despite of the large number of CAMs for other class A GPCRs and further efforts to generate additional CAMs for CXCR4 (Berchiche et al., 2007), the N119 mutants of CXCR4 remain the only known CAMs for this receptor. […] Methods: Preparation of membranes and competition binding experiments with [125I]-CXCL12 (40 pM) were performed as described before for wild type CXCR4 (vide supra).

CXCR4 [3] = target: T2, CXCR4 (Homo sapiens, UniProt P61073); assay: Competition binding, displacement of [^125I]-CXCL12 on membranes from HEK293T cells transiently expressing CXCR4; settings: maximal displacement; membranes from HEK293T cells transiently expressing CXCR4; mean ± S.E.M.
T2 construct: expressed in transfected cells; host or cells: HEK293T, transient; membrane fraction
Method: (§1) Iodine incorporation and specific activity were controlled via precipitation of the protein with trichloroacetic acid.
(§2) Competition binding assay—Periplasmic fractions were screened in a competition binding assay using membranes from HEK293T cells transiently expressing CXCR4. […] Membranes were then harvested over polyethylenimine (0.5%)-treated Whatman GF/C filter plates and washed three times with ice cold binding buffer containing 500 mM NaCl. Plates were counted by liquid scintillation.
(§3) Characterization of Nanobody binding to CXCR4—Following purification, receptor binding to characteristics for 238D2 and 238D4 were investigated on cell membranes from HEK293T cells transiently expressing CXCR4.
(§4) Data analysis and presentation—Data are presented as mean±S.E.M. from n independent experiments. Concentration response curves (E/[A] curves) were fitted to the Hill equation using an iterative, least-squares method (GraphPad Prism 4.0, GraphPad Software, San Diego, Calif.) to provide maximal inhibitory effects (Imax), half maximal effective (EC50) or inhibitory concentrations (IC50). Competition binding affinities and functional antagonist affinities (Ki) were calculated using the Cheng and Prusoff equation Ki=IC50/(1+[agonist]/EC50) (Cheng & Prusoff, 1973).

CXCR4 [4] = target: T2, CXCR4; assay: Competition binding, displacement of [^125I]-238D4 on membranes from HEK293T cells transiently expressing CXCR4
Method: as §1, §2, §3, §4

CXCR4 [5] = target: T2, CXCR4; assay: Competition binding, displacement of [^125I]-238D2 on membranes from HEK293T cells transiently expressing CXCR4
Method: as §1, §2, §3, §4

[6] = target: wildtype human CXCR4 (pcDNA3.1-CXCR4, expressed in HEK293T) (human) (UniProt P61073); assay: competition with [125I]-CXCL12, HEK293T-CXCR4 membranes
[7] = target: CXCR4 mutation library clone 2396 (S178C) (human) (UniProt P61073); assay: immunofluorescence on HEK-293T expressing the clone, normalised to wild type
[8] = target: CXCR4 mutation library clone 2084 (D187V) (human) (UniProt P61073); assay: as above
[9] = target: CXCR4 mutation library clone 2270 (V196E) (human) (UniProt P61073); assay: as above
[10] = target: CXCR4 mutation library clone 465 (F189L, S319P, V155E) (human) (UniProt P61073); assay: as above
[11] = target: CXCR4 mutation library clone 2834 (E179V, G258E) (human) (UniProt P61073); assay: as above
[12] = target: CXCR4 mutation library clone 2184 (P191T) (human) (UniProt P61073); assay: as above
[13] = target: CXCR4 mutation library clone 913 (F189S, K308R) (human) (UniProt P61073); assay: as above
[14] = target: CXCR4 mutation library clone 1057 (K230E, S178R) (human) (UniProt P61073); assay: as above
[15] = target: CXCR4 mutation library clone 3728 (D187A, Y157C) (human) (UniProt P61073); assay: as above
[16] = target: CXCR4 mutation library clone 3630 (W195R) (human) (UniProt P61073); assay: as above
[17] = target: CXCR4 mutation library clone 3622 (E277G) (human) (UniProt P61073); assay: as above
[18] = target: CXCR4 mutation library clone 709 (P163L, S178I) (human) (UniProt P61073); assay: as above
[19] = target: CXCR4 mutation library clone 414 (C218R, E179V, S351T) (human) (UniProt P61073); assay: as above
[20] = target: CXCR4 mutation library clone 1129 (F189V) (human) (UniProt P61073); assay: as above
[21] = target: CXCR4 mutation library clone 185 (E277A, I245V, N298S) (human) (UniProt P61073); assay: as above
[22] = target: CXCR4 mutation library clone 914 (N192K) (human, UniProt P61073 1-352); assay: as above
[23] = target: wildtype human CXCR4 (pcDNA3.1-CXCR4, expressed in HEK293T) (human) (UniProt P61073); assay: competition with [125I]-238D4, HEK293T-CXCR4 membranes
[24] = target: wildtype human CXCR4 (pcDNA3.1-CXCR4, expressed in HEK293T) (human) (UniProt P61073); assay: competition with [125I]-238D2, HEK293T-CXCR4 membranes
[25] = maximal displacement, mean ± S.E.M.

T1 sequence (P61073 whole entry N119A): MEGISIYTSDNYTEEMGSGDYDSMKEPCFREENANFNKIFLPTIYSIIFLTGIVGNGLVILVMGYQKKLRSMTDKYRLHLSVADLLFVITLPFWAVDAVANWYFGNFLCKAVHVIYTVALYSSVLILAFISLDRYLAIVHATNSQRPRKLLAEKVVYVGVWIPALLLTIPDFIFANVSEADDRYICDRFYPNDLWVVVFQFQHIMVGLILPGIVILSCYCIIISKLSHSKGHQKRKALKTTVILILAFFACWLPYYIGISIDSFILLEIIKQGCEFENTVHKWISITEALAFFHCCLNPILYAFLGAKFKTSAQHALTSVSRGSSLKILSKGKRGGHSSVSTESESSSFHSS
T2 sequence (P61073 whole entry): as the sequence (P61073 whole entry N119A) above, with A119N counted along it
Sequence of wildtype human CXCR4 (pcDNA3.1-CXCR4, expressed in HEK293T) (human) (P61073 whole entry): as the sequence (P61073 whole entry N119A) above, with A119N counted along it
Sequence of CXCR4 mutation library clone 709 (P163L, S178I) (human) (P61073 whole entry P163L/S178I): as the sequence (P61073 whole entry N119A) above, with A119N, P163L, S178I counted along it
Sequence of CXCR4 mutation library clone 185 (E277A, I245V, N298S) (human) (P61073 whole entry I245V/E277A/N298S): as the sequence (P61073 whole entry N119A) above, with A119N, I245V, E277A, N298S counted along it
Sequence of CXCR4 mutation library clone 1057 (K230E, S178R) (human) (P61073 whole entry S178R/K230E): as the sequence (P61073 whole entry N119A) above, with A119N, S178R, K230E counted along it
Sequence of CXCR4 mutation library clone 2184 (P191T) (human) (P61073 whole entry P191T): as the sequence (P61073 whole entry N119A) above, with A119N, P191T counted along it
Sequence of CXCR4 mutation library clone 913 (F189S, K308R) (human) (P61073 whole entry F189S/K308R): as the sequence (P61073 whole entry N119A) above, with A119N, F189S, K308R counted along it
Sequence of CXCR4 mutation library clone 3622 (E277G) (human) (P61073 whole entry E277G): as the sequence (P61073 whole entry N119A) above, with A119N, E277G counted along it
Sequence of CXCR4 mutation library clone 2270 (V196E) (human) (P61073 whole entry V196E): as the sequence (P61073 whole entry N119A) above, with A119N, V196E counted along it
Sequence of CXCR4 mutation library clone 1129 (F189V) (human) (P61073 whole entry F189V): as the sequence (P61073 whole entry N119A) above, with A119N, F189V counted along it
Sequence of CXCR4 mutation library clone 2396 (S178C) (human) (P61073 whole entry S178C): as the sequence (P61073 whole entry N119A) above, with A119N, S178C counted along it
Sequence of CXCR4 mutation library clone 414 (C218R, E179V, S351T) (human) (P61073 whole entry E179V/C218R/S351T): as the sequence (P61073 whole entry N119A) above, with A119N, E179V, C218R, S351T counted along it
Sequence of CXCR4 mutation library clone 465 (F189L, S319P, V155E) (human) (P61073 whole entry V155E/F189L/S319P): as the sequence (P61073 whole entry N119A) above, with A119N, V155E, F189L, S319P counted along it
Sequence of CXCR4 mutation library clone 2834 (E179V, G258E) (human) (P61073 whole entry E179V/G258E): as the sequence (P61073 whole entry N119A) above, with A119N, E179V, G258E counted along it
Sequence of CXCR4 mutation library clone 3630 (W195R) (human) (P61073 whole entry W195R): as the sequence (P61073 whole entry N119A) above, with A119N, W195R counted along it
Sequence of CXCR4 mutation library clone 2084 (D187V) (human) (P61073 whole entry D187V): as the sequence (P61073 whole entry N119A) above, with A119N, D187V counted along it
Sequence of CXCR4 mutation library clone 914 (N192K) (P61073 whole entry N192K): as the sequence (P61073 whole entry N119A) above, with A119N, N192K counted along it
Sequence of CXCR4 mutation library clone 3728 (D187A, Y157C) (human) (P61073 whole entry Y157C/D187A): as the sequence (P61073 whole entry N119A) above, with A119N, Y157C, D187A counted along it

- stimulation of the mutant receptor (CXCR4 (N119A) [1]; inositol phosphate accumulation, CXCR4 (N119A)): 0.4 fold over basal
Molecule: CXCL12: CXCR4 reference ligand, human CXCL12 (SDF-1) [reference compound]

- binding to CXCR4 (N119A) (in words) (CXCR4 (N119A) [2]): clearly bind to the mutant receptor
- [^125I]-CXCL12 Displacem. (%) (CXCR4 [3]): 94 ± 2%
- [^125I]-238D4 Displacem. (%) (CXCR4 [4]; [25]): 99 ± 4%
- [^125I]-238D2 Displacem. (%) (CXCR4 [5]; [25]): 102 ± 1%
Molecule: c1cc(CN2CCCNCCNCCCNCC2)ccc1CN1CCCNCCNCCCNCC1 [AMD3100, reference compound]
- functional profile on CXCR4 (N119A) (in words) (CXCR4 (N119A) [1]): Only antagonistic but no significant inverse agonistic activities
- displacement of [^125I]-238D4 (in words) (CXCR4 [4]): affinities comparable to those obtained against [^125I]-CXCL12
- displacement of [^125I]-238D2 (in words) (CXCR4 [5]): affinities comparable to those obtained against [^125I]-CXCL12

Further lines, the molecule ahead of its results:

Molecule: monoclonal antibody 12G5
- maximal displacement (%) [6]: 54%
- pKi [6]: 9.19 pKi
- % immunofluorescence [7]: 91.8%
- % immunofluorescence [8]: 89.5%
- % immunofluorescence [9]: 96.8%
- % immunofluorescence [10]: 50.4%
- % immunofluorescence [11]: 1.5%
- % immunofluorescence [12]: 118%
- % immunofluorescence [13]: 110%
- % immunofluorescence [14]: 112%
- % immunofluorescence [15]: 95.1%
- % immunofluorescence [16]: 85.5%
- % immunofluorescence [17]: 61.3%
- % immunofluorescence [18]: 113%
- % immunofluorescence [19]: -9.1%
- % immunofluorescence [20]: 94.7%
- % immunofluorescence [21]: 93.9%
- % immunofluorescence [22]: 57.7%
- maximal displacement (%) [23]: 90%
- pKi [23]: 9.31 pKi
- maximal displacement (%) [24]: 89%
- pKi [24]: 9.65 pKi

B1: L3: bivalent fusion product 238D2-15GS-238D4, SEQ ID NO: 4 (protein)
chain: EVQLVESGGGLVQTGGSLRLSCAASGFTFSSYAMSWVRQAPGKGLEWVSGIKSSGDSTRYAGSVKGRFTISRDNAKNMLYLQMYSLKPEDTAVYYCAKSRVSRTGLYTYDNRGQGTQVTVSSGGGGSGGGGSGGGGSEVQLMESGGGLVQAGGSLRLSCAASGRTFNNYAMGWFRRAPGKEREFVAAITRSGVRSGVSAIYGDSVKDRFTISRDNAKNTLYLQMNSLKPEDTAVYTCAASAIGSGALRRFEYDYSGQGTQVTVSS
modifications: Nanobody construct
- binding affinities to CXCR4 (N119A) compared to wild type (in words) (CXCR4 (N119A) [2]): somewhat less compared to the wild type receptor
- binding to CXCR4 (N119A) (in words) (CXCR4 (N119A) [2]): able to bind to CXCR4 (N119A)
- reduction of the constitutively increased basal signalling of CXCR4 (N119A) (CXCR4 (N119A) [1]): 64%
- functional profile on CXCR4 (N119A) (in words) (CXCR4 (N119A) [1]): partial inverse agonists

B2: L8: bivalent fusion product 238D2-20GS-238D4, SEQ ID NO: 5 (protein)
chain: EVQLVESGGGLVQTGGSLRLSCAASGFTFSSYAMSWVRQAPGKGLEWVSGIKSSGDSTRYAGSVKGRFTISRDNAKNMLYLQMYSLKPEDTAVYYCAKSRVSRTGLYTYDNRGQGTQVTVSSGGGGSGGGGSGGGGSGGGGSEVQLMESGGGLVQAGGSLRLSCAASGRTFNNYAMGWFRRAPGKEREFVAAITRSGVRSGVSAIYGDSVKDRFTISRDNAKNTLYLQMNSLKPEDTAVYTCAASAIGSGALRRFEYDYSGQGTQVTVSS
modifications: Nanobody construct
- binding affinities to CXCR4 (N119A) compared to wild type (in words) (CXCR4 (N119A) [2]): somewhat less compared to the wild type receptor
- binding to CXCR4 (N119A) (in words) (CXCR4 (N119A) [2]): able to bind to CXCR4 (N119A)
- reduction of the constitutively increased basal signalling of CXCR4 (N119A) (CXCR4 (N119A) [1]): 65%
- functional profile on CXCR4 (N119A) (in words) (CXCR4 (N119A) [1]): partial inverse agonists
